Reference: patent US20060270591A1, “Androgen receptor coregulators” (priority 2002, published 2006)

How the values were obtained:
ER = biological target: T1, ER (Homo sapiens, UniProt P03372); assay: ER transcription activity, ERE-CAT reporter (Example 1); type: cell-based; details: DU145 cells
T1 construct: expressed in transfected cells; host or cells: DU145
T1 sequence (P03372 1-595): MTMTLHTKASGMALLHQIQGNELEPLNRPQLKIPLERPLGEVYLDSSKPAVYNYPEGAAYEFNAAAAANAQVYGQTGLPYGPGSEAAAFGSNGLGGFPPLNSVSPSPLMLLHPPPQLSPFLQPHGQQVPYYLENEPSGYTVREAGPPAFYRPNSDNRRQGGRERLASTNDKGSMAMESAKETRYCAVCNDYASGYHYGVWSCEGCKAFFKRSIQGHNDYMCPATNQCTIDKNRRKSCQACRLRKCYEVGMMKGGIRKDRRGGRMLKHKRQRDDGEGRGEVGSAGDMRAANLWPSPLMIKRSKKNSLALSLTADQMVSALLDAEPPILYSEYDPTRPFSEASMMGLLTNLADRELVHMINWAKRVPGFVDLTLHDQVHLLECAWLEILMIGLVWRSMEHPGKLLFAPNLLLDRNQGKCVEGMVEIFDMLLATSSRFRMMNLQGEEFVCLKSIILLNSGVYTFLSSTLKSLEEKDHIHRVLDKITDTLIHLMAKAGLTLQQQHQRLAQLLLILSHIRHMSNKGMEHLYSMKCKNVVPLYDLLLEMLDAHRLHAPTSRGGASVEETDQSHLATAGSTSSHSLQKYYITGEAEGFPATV
Experimental: (§1) 366. Human prostate cancer DU145 or PC3 cells, or human lung carcinoma cells NCI H1299 were grown in Dulbecco's minimal essential medium (DMEM) containing penicillin (25 U/ml), streptomycin (25˜g/ml), and 5% fetal calf serum (FCS). One hour before transfection, the medium was changed to DMEM with 5% charcoal-stripped FCS. Phenol red-free and serum-free media were used on the experiments employing E2 or TGF-β, respectively. A β-galactosidase expression plasmid, pCMV-β-gal, was used as an internal control for transfection efficiency.
(§2) 367. Cells were transfected using the calcium phosphate technique (Yeh, et al. Molec. Endocrinol. 8:77-88, 1994). The medium was changed 24 hr posttransfection and the cells treated with either steroid hormones or hydroxyflutamide, and cultured for an additional 24 hr. Cells were harvested and assayed for CAT activity after the cell lysates were normalized by using β-galactosidaseas an internal control. Chloramphenicol acetyltransferase (CA) activity was visualized by PhosphorImager (Molecular Dynamics) and quantitated by ImageQuant software (Molecular Dynamics).

GR = biological target: T2, GR (Homo sapiens, UniProt P04150); assay: GR transcription activity, MMTV-CAT reporter (Example 1); type: cell-based; design: expressed in transfected cells; host or cells: DU145; details: DU145 cells
T2 sequence (P04150 1-777): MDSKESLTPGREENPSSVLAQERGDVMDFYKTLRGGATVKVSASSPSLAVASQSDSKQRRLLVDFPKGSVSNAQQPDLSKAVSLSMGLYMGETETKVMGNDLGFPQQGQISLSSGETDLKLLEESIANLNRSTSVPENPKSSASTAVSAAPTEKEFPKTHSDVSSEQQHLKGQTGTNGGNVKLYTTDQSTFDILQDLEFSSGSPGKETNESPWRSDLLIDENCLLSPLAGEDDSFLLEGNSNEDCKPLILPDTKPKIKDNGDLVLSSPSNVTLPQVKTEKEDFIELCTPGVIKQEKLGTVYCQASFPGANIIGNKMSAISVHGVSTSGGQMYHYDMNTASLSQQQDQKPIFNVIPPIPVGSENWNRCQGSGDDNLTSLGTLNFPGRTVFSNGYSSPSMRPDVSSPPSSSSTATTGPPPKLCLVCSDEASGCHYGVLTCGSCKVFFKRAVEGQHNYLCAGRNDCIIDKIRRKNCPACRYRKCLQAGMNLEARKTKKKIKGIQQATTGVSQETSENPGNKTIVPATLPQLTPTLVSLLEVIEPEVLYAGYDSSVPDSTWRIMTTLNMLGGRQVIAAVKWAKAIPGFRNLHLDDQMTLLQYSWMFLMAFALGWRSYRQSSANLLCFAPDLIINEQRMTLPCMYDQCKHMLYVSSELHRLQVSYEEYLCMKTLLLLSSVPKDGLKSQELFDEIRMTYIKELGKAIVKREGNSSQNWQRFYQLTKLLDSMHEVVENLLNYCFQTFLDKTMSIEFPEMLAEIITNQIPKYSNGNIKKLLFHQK
Experimental: as §1, §2

AR = AR transactivation reporter gene assay (CAT/Luc) in prostate cancer cell lines (Example 2); type: cell-based, human
Chain of AR (P10275 whole entry): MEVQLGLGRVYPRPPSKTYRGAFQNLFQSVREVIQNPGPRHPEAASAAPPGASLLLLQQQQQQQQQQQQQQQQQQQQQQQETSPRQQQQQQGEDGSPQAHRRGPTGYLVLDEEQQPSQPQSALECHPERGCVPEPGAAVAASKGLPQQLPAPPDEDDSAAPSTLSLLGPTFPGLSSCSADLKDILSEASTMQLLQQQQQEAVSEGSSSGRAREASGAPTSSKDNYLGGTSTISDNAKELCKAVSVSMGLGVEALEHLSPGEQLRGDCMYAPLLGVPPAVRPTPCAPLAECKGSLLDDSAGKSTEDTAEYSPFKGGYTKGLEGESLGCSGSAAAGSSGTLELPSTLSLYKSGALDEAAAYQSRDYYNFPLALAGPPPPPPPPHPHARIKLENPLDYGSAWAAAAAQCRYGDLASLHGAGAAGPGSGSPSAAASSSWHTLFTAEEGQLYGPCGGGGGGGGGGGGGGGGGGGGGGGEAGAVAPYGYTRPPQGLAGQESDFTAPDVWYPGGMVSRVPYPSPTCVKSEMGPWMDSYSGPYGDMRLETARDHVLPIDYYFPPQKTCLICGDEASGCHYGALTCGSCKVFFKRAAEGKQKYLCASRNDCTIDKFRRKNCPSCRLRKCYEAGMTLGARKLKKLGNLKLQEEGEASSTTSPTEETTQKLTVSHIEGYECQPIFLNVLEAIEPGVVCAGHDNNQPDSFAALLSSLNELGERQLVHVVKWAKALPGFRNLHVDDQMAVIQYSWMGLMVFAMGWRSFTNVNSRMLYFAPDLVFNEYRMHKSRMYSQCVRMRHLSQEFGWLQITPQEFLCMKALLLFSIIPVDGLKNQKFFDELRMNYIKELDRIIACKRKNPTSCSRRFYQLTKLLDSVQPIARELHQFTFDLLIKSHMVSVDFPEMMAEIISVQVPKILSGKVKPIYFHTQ
Experimental: 394. The human prostate cancer cell lines, LNCaP, PC-3, and DU145, were maintained in Dulbecco's minimum essential medium (DMEM) containing 5% fetal calf serum (FCS). Transfections using the calcium phosphate precipitation method and chloramphenicol acetyltransferase (CAT) and luciferase (Luc) assays were performed as previously described (Miyamoto et al. (1998) Proc. Natl. Acad. Sci. U.S.A. 95, 7379-7384; Yeh et al. (1999) Endocrine 11, 195-202; Miyamoto et al. (1998) Proc. Natl. Acad. Sci. U.S.A. 95, 11083-11088). Briefly, 1-4×10^5 cells were plated on 35-mm or 60-mm dishes 24 h before adding the precipitation mix containing a CAT or Luc reporter gene and a β-galactosidase expression plasmid (pCMV-β-gal) as an internal control for normalization of transfection efficiency. The medium was changed to phenol-red-free DMEM with 5% charcoal-stripped FCS 1 h before transfection. In each experiment, the total amount of transfected DNA per dish was maintained as a constant by addition of empty expression vector (pSG5 or pVP16, as appropriate). […] The cells were then harvested and whole cell extracts were used for CAT or Luc assay. The CAT activity was quantitated with a PhosphorImager (Molecular Dynamics). The Luc assay was determined using a Dual-Luciferase Reporter Assay System (Promega) and luminometer.

B1: ARA54: 54 kDa protein that interacts with AR in an androgen-dependent manner; AR coactivator (protein)
chain: MSSEDREAQEDELLALASIYDGDEFRKAESVQGGETRIYLDLPQNFKIFVSGNSNECLQNSGFEYTICFLPPLVLNFELPPDYPSSSPPSFTLSGKWLSPTQLSALCKHLDNLWEEHRGSVVLFAWMQFLKEETLAYLNIVSPFELKIGSQKKVQRRTAQASPNTELDFGGAAGSDVDQEEIVDERAVQDVESLSNLIQEILDFDQAQQIKCFNSKLFLCSICFCEKLGSECMYFLECRHVYCKACLKDYFEIQIRDGQVQCLNCPEPKCPSVATPGQVKELVEAELFARYDRLLLQSSLDLMADVVYCPRPCCQLPVMQEPGCTMGICSSCNFAFCTLCRLTYHGVSPCKVTAEKLMDLRNEYLQADEANKRLLDQRYGKRVIQKALEEMESKEWLEKNSKSCPCCGTPIEKLDGCNKMTCTGCMQYFCWICMGSLSRANPYKHFNDPGSPCFNRLFYAVDVDDDIWEDEVED
effect on ER transcription activity (ER): less than 2 fold | effect on GR transcription activity (GR): less than 2 fold

B2: C′-ARA54: C-terminal region (amino acids 361-474) of ARA54 (protein)
chain: RNEYLQADEANKRLLDQRYGKRVIQKALEEMESKEWLEKNSKSCPCCGTPIEKLDGCNKMTCTGCMQYFCWICMGSLSRANPYKHFNDPGSPCFNRLFYAVDVDDDIWEDEVED
modifications: Homo sapien
notes: C-terminal region (amino acids 361-474) of ARA54
effect on ARA55-, ARA70-, Rb-, or SRC-1-enhanced AR transactivation (AR; DU145 cells, 1 nM DHT): only marginal or slight suppressive effects | effect on DHT- or HF-mediated AR transcription activity (AR; LNCaP, PC-3, DU145 cells, 1 nM DHT or 1 μM HF): suppresses DHT- or HF-mediated AR transcription activity
